Experimental data taken from paper PMC6137974, “FZP determines grain size and sterile lemma fate in rice”.

Tests used:
[1] = target: T1, FZP (FRIZZY PANICLE) (Oryza sativa, UniProt Q8H3Q1 1-318); assay: EMSA; 0.5, 1 and 1.5 ug protein; EMSA, 15 ul, 1 ug biotin probe, 0.5-1.5 ug protein, LightShift Chemiluminescent EMSA Kit (Thermo) binding buffer; salt, pH and temperature not stated; settings: protein: recombinant; tags: His-SUMO (pET-SUMO); label: 5' biotin; blunt
[2] = target: T1, FZP (FRIZZY PANICLE); assay: EMSA; 1.5 ug protein; EMSA, 15 ul, 1 ug biotin probe, 0.5-1.5 ug protein, LightShift Chemiluminescent EMSA Kit (Thermo) binding buffer; salt, pH and temperature not stated; settings: protein: recombinant; tags: His-SUMO (pET-SUMO); label: 5' biotin; blunt

T1 sequence (Q8H3Q1 whole entry): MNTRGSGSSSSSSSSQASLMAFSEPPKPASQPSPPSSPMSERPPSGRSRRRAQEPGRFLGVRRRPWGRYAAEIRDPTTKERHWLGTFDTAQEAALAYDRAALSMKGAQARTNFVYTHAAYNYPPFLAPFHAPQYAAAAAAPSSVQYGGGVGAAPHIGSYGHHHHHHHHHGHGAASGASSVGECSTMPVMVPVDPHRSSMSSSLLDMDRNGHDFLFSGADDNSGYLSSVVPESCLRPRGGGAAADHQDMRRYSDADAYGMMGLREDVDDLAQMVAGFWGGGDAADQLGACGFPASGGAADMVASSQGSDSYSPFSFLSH

B1: GCC-box probe (3 repeats) (dsDNA)
DNA 1: CATAAGAGCCGCCACTCATAAGAGCCGCCACTCATAAGAGCCGCCACT
DNA 2: AGTGGCGGCTCTTATGAGTGGCGGCTCTTATGAGTGGCGGCTCTTATG
binding result [1]: binds

B2: mGCC-box probe (3 repeats) (dsDNA)
DNA 1: CATAAGATACTTGACTCATAAGATACTTGACTCATAAGATACTTGACT
DNA 2: AGTCAAGTATCTTATGAGTCAAGTATCTTATGAGTCAAGTATCTTATG
binding result [2]: no binding

B3: mDRE probe (3 repeats) (dsDNA)
DNA 1: ATACGTCTTTGACGAGATACGTCTTTGACGAGATACGTCTTTGACGAG
DNA 2: CTCGTCAAAGACGTATCTCGTCAAAGACGTATCTCGTCAAAGACGTAT
binding result [2]: no binding

B4: DRE probe (3 repeats) (dsDNA)
DNA 1: ATACTACCGACATGAGATACTACCGACATGAGATACTACCGACATGAG
DNA 2: CTCATGTCGGTAGTATCTCATGTCGGTAGTATCTCATGTCGGTAGTAT
binding result [1]: binds
